These results are taken from patent publication EP2019137A1.

The test addresses wild-type SPW1 protein (SUPERWOMAN1, AP3-type class-B MADS-box protein of rice), M, I and K domains, yeast two-hybrid construct (rice (Oryza sativa)). Description: yeast two-hybrid, LacZ reporter.

Take “V45T mutant-type protein of OsMADS2, M, I and K domains, yeast two-hybrid construct”: the binding relative to OsMADS2wt with SPW1^wt (fold of OsMADS2wt-SPW1^wt binding) came out at 0.5.
